First the molecules themselves.
B1: GRF4, Split-LUC fusion [Arabidopsis thaliana] / PI-PLC2, Split-LUC fusion [Arabidopsis thaliana] (parent)
chain 1: MAAPPASSSAREEFVYLAKLAEQAERYEEMVEFMEKVAEAVDKDELTVEERNLLSVAYKNVIGARRASWRIISSIEQKEESRGNDDHVTTIRDYRSKIESELSKICDGILKLLDTRLVPASANGDSKVFYLKMKGDYHRYLAEFKTGQERKDAAEHTLTAYKAAQDIANAELAPTHPIRLGLALNFSVFYYEILNSPDRACNLAKQAFDEAIAELDTLGEESYKDSTLIMQLLRDNLTLWTSDMQDESPEEIKEAAAPKPAEEQKEI
chain 2: MSKQTYKVCFCFRRRFRYTASEAPREIKTIFEKYSENGVMTVDHLHRFLIDVQKQDKATREDAQSIINSASSLLHRNGLHLDAFFKYLFGDNNPPLALHKVHHDMDAPISHYFIFTGHNSYLTGNQLSSDCSEVPIIDALKKGVRVIELDIWPNSNKDDIDVLHGMTLTTPVGLIKCLKAIRAHAFDVSDYPVVVTLEDHLTPDLQSKVAEMVTEIFGEILFTPPVGESLKEFPSPNSLKRRIIISTKPPKEYKEGKDVEVVQKGKDLGDEEVWGREVPSFIQRNKSEAKDDLDGNDDDDDDDDEDKSKINAPPQYKHLIAIHAGKPKGGITECLKVDPDKVRRLSLSEEQLEKAAEKYAKQIVRFTQHNLLRIYPKGTRVTSSNYNPLVGWSHGAQMVAFNMQGYGRSLWLMQGMFRANGGCGYIKKPDLLLKSGSDSDIFDPKATLPVKTTLRVTVYMGEGWYFDFRHTHFDQYSPPDFYTRVGIAGVPGDTVMKKTKTLEDNWIPAWDEVFEFPLTVPELALLRLEVHEYDMSEKDDFGGQTCLPVWELSEGIRAFPLHSRKGEKYKSVKLLVKVEFV

The first test covers variants of B1. Briefly: Split-LUC. The conditions noted are these: with PI-PLC2, Split-LUC fusion [Arabidopsis thaliana]; P4: nluc-GRF4 S242D, cluc-PI-PLC2, 35S::IPCK1-flag co-infiltrated (1:1:2); Total cps 150882, Areas 56.84; parent value is P1, which the printed layout grid …; parent: 1.67e+03.
With chain 1 S242D, the response (cps (average)) was determined as 2650.

Still in this test, the particulars now being: with PI-PLC2, Split-LUC fusion [Arabidopsis thaliana]; P3: nluc-GRF4 S242A, cluc-PI-PLC2, 35S::IPCK1-flag co-infiltrated (1:1:2); Total cps 91336, Areas 49.23; parent value is P1, which the printed layout grid …; parent: 1.67e+03.
Consider chain 1 S242A, for which the response (cps (average)) was 1860.

For the origin of these results see PMC11178898, “A clade of receptor-like cytoplasmic kinases and 14-3-3 proteins coordinate inositol hexaphosphate accumulation” (Nature Communications, 2024).
